The source of these data is patent US20180087118.

The target of data set [1] is T1, H-TKQTARK(Me3)STGGKAPR-OH (TR-15, H3 3-17 K9me3 peptide).
T1 chain: TKQTARKSTGGKAPR

Data set [2] concerns the target H3 31-41 K36me3 peptide, P68431.

B1: Human KDM4A 1-347 (His6-tagged, expressed in E. coli from pET28a) (protein)
chain: MASESETLNPSARIMTFYPTMEEFRNFSRYIAYIESQGAHRAGLAKVVPPKEWKPRASYDDIDDLVIPAPIQQLVTGQSGLFTQYNIQKKAMTVREFRKIANSDKYCTPRYSEFEELERKYWKNLTFNPPIYGADVNGTLYEKHVDEWNIGRLRTILDLVEKESGITIEGVNTPYLYFGMWKTSFAWHTEDMDLYSINYLHFGEPKSWYSVPPEHGKRLERLAKGFFPGSAQSCEAFLRHKMTLISPLMLKKYGIPFDKVTQEAGEFMITFPYGYHAGFNHGFNCAESTNFATRRWIEYGKQAVLCSCRKDMVKISMDVFVRKFQPERYKLWKAGKDNTVIDHTLPT
With B1, the Km (µM), FDH-coupled demethylase assay stood at 92.5 µM in data set [1] and 170 µM in data set [2].

B2: Human KDM4B 1-348 (His6-tagged, expressed in E. coli from pET28a) (protein)
chain: MGSEDHGAQNPSCKIMTFRPTMEEFKDFNKYVAYIESQGAHRAGLAKIIPPKEWKPRQTYDDIDDVVIPAPIQQVVTGQSGLFTQYNIQKKAMTVGEYRRLANSEKYCTPRHQDFDDLERKYWKNLTFVSPIYGADISGSLYDDDVAQWNIGSLRTILDMVERECGTIIEGVNTPYLYFGMWKTTFAWHTEDMDLYSINYLHFGEPKSWYAIPPEHGKRLERLAIGFFPGSSQGCDAFLRHKMTLISPIILKKYGIPFSRITQEAGEFMITFPYGYHAGFNHGFNCAESTNFATLRWIDYGKVATQCTCRKDMVKISMDVFVRILQPERYELWKQGKDLTVLDHTRPT
Consider B2, for which the Km (µM), FDH-coupled demethylase assay in data set [1] came out at 88.3 µM; in data set [2], 138 µM.
